Patent publication US20240166765A1 (ICONIC THERAPEUTICS, published 2024)

T1: pig TF-His (pig (Sus scrofa))
T1 construct: also called pig TF ECD-His; pTF
T1 chain: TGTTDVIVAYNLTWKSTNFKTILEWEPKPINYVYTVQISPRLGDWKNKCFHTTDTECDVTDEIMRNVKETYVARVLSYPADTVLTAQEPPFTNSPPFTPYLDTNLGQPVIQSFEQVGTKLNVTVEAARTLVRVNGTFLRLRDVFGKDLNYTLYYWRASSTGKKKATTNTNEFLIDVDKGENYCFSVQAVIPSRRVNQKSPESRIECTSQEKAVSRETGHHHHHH


Key:
rabbit TF-His = target: T2, rabbit TF-His (rabbit (Oryctolagus cuniculus), UniProt P24055 33-250); assay: SPR (Biacore), antibody captured by anti-human IgG on CM5 chip, rabbit TF-His in solution, 1:1 model
T2 construct: also called rabbit TF ECD-His
T2 sequence (P24055 other isoform, or with tags, fused parts or gaps): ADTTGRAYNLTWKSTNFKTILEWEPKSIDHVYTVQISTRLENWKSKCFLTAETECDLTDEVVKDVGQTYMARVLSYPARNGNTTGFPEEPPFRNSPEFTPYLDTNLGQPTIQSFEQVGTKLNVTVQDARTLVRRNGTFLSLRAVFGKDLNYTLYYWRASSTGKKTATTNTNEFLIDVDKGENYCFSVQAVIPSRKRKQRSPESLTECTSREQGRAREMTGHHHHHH

pig TF-His = target: T1, pig TF-His; assay: SPR (Biacore), antibody captured by anti-human IgG on CM5 chip, pig TF-His in solution, 1:1 model

Binder | Kd (rabbit TF-His) [nM] | Kd (pig TF-His) [nM]
25A5 (antibody, human IgG1, kappa, V domains shown, Human IgG1; also called antibody 25A5) VH: QVQLVQSGAEVKKPGASVKVSCKASGYTFDVYGISWVRQAPGQGLEWMGWIAPYSGNTNYAQKLQGRVTMTTDTSTSTAYMELRSLRSDDTAVYYCARDAGTYSPFGYGMDVWGQGTTVTVSS VL: DIQMTQSPSTLSASVGDRVTITCRASESISNWLAWYQQKPGKAPKLLIYKAYSLEYGVPSRFSGSGSGTEFTLTISSLQPDDFATYYCQQFQKLPPFTFGGGTKVEIKR | 5.4 | 5.2
25A5-T (antibody, human IgG1, kappa, V domains shown, Human IgG1) VH: QVQLVQSGAEVKKPGASVKVSCKASGYTFDAYGISWVRQAPGQGLEWMGWIAPYSGNTNYAQKLQGRVTMTTDTSTSTAYMELRSLRSDDTAVYYCARDAGTYSPFGYGMDVWGQGTTVTVSS VL: DIQMTQSPSTLSASVGDRVTITCRASESISNWLAWYQQKPGKAPKLLIYKAYSLEYGVPSRFSGSGSGTEFTLTISSLQPDDFATYYCQQFQKLPPFTFGGGTKVEIKR | 5.4 | 4.5
25G1 (antibody, human IgG1, kappa, V domains shown, Human IgG1; also called antibody 25G1) VH: QVQLVQSGAEVKKPGASVKVSCKASGYTFRSYGISWVRQAPGQGLEWMGWVAPYSGNTNYAQKLQGRVTMTTDTSTSTAYMELRSLRSDDTAVYYCARDAGTYSPYGYGMDVWGQGTTVTVSS VL: DIQMTQSPSTLSASVGDRVTITCRASHSIDSWLAWYQQKPGKAPKLLIYKASYLESGVPSRFSGSGSGTEFTLTISSLQPDDFATYYCQLFQSLPPFTFGGGTKVEIKR | 3.6 | 2.6
25G9 (antibody, human IgG1, kappa, V domains shown, Human IgG1; also called antibody 25G9) VH: QVQLVQSGAEVKKPGASVKVSCKASGYTFRSYGISWVRQAPGQGLEWMGWVAPYSGNTNYAQKLQGRVTMTTDTSTSTAYMELRSLRSDDTAVYYCARDAGTYSPYGYGMDVWGQGTTVTVSS VL: DIQMTQSPSTLSASVGDRVTITCQASQSIDSWLAWYQQKPGKAPKLLIYSASYLESGVPSRFSGSGSGTEFTLTISSLQPDDFATYYCQRFQSLPPFTFGGGTKVEIKR | 4.2 | 3.3
43D7 (antibody, human IgG1, kappa, V domains shown, Human IgG1; also called antibody 43D7) VH: QVQLQQWGAGLLKPSETLSLTCAVYGGSLSGYYWSWIRQPPGKGLEWIGEIGASGSTRYNPSLKSRVTISVDTSKNQFSLKLSSVTAADTAVYYCARDTPYYYEGGYYYYMDVWGKGTTVTVSS VL: EIVLTQSPGTLSLSPGERATLSCRASDSVDSSYLAWYQQKPGQAPRLLIYGAFSRANGIPDRFSGSGSGTDFTLTISRLEPEDFAVYYCQQAGVVPYTFGGGTKVEIKR | 6.8 | 8.8
